Values quoted from earlier work, collected in article PMC5605561.

Molecular target: B2R (Homo sapiens) (UniProt P30411)
Sequence of UniProt P30411 (P30411 whole entry): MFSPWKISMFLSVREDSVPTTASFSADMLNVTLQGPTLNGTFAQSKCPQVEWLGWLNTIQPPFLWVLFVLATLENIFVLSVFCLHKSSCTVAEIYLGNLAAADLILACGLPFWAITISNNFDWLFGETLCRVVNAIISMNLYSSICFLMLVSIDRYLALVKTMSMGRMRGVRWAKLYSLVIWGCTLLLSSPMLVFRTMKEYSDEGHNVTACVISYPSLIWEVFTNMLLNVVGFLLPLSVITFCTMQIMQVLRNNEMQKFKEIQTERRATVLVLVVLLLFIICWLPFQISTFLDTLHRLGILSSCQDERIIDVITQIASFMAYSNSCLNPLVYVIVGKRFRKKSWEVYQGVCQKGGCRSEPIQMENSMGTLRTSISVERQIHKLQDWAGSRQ

Substance: bradykinin bradykinin (from UniProt P01042)
- Kd: 10 nM
